Data on 15 variants can be found in the RNAGym collection of RNA variant scans (doi:10.1093/molbev/msab373).

B1: Azoarcus group I ribozyme (parent)
chain: GUGCCUUGCGCCGGGAAACCACGCAAGGGAUGGUGUCAAAUUCGGCGAAACCUAAGCGCCCGCCCGGGCGUAUGGCAACGCCGAGCCAAGCUUCGGCGCCUGCGCCGAUGAAGGUGUAGAGACUAGACGGCACCCACCUAAGGCAAACGCUAUGGUGAAGGCAUAGUCCAGGGAGUGGCGAAAGUCACACAAACCGG

This data set covers variants of B1. Description: reverse-splicing fitness (ratio to wild type); higher = more active; in vitro selection; Mg2+ level not given. The method, boiled down: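 An in vitro group I ribozyme library with randomized positions was T7-transcribed and gel-purified. In triplicate, 10 pmol RNA in EPPS pH 7.5 was reacted with 50 pmoles of a 30-nt RNA substrate for 1 h at 37 °C across several added MgCl2 levels (1–48 mM), then stopped with EDTA. Products were reverse transcribed from a substrate-complementary primer, PCR-amplified and sequenced (HiSeq 4000). Fitness is a variant's read proportion after selection over that before, normalised to wild type.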
Take GUGCCUUGCGCCGGGAAACCACGCAAGGGAUGGUGUCAAAUUCGGCGAAACCUAAGCGCCCGCCCGGGCGUAUGGCAACGCCGAGCCAAGCUUCGGCGCCUGCGCCGAUGCAGGUGUAGCGACUAGACGGCACCCACCUAAGGCCAACGGUAUGGUGAAGGCAUAGUCCAGGGAGUGGCGAAAGUCACACAAACCGG [A111C A120C A145C C150G]: the reverse-splicing fitness came out at 0.0702.

For the variant GUGCCUUGCGCCGGGAAACCACGCAAGGGAUGGUGUCAAAUUCGGCGAAACCUAAGCGCCCGCCCGGGCGUAUGGCAACGCCGAGCCAAGCUUCGGCGCCUGCGCCGAUGCAGGUGUAGCGACUAGACGGCACCCACCUAAGGCCAACGAUAUGGUGAAGGCAUAGUCCAGGGAGUGGCGAAAGUCACACAAACCGG [A111C A120C A145C C150A], the reverse-splicing fitness was 0.0308. Then GUGCCUUGCGCCGGGAAACCACGCAAGGGAUGGUGUCAAAUUCGGCGAAACCUAAGCGCCCGCCCGGGCGUAUGGCAACGCCGAGCCAAGCUUCGGCGCCUGCGCCGAUGCAGGUGUAGCGACUAGACGGCACCCACCUAAGGCCAACGAUAUGGUGAAGGCAUAGUCUAGGGAGCGGCGAAAGUCACACAAACCGG [A111C A120C A145C C150A C169U U176C], with 0.0108; and GUGCCUUGCGCCGGGAAACCACGCAAGGGAUGGUGUCAAAUUCGGCGAAACCUAAGCGCCCGCCCGGGCGUAUGGCAACGCCGAGCCAAGCUUCGGCGCCUGCGCCGAUGCAGGUGUAGCGACUAGACGGCACCCACCUAAGGCCAACGAUAUGGUGAAGGCAUAGUCUAGGGAGAGGCGAAAGUCACACAAACCGG [A111C A120C A145C C150A C169U U176A], with 0.0155; and GUGCCUUGCGCCGGGAAACCACGCAAGGGAUGGUGUCAAAUUCGGCGAAACCUAAGCGCCCGCCCGGGCGUAUGGCAACGCCGAGCCAAGCUUCGGCGCCUGCGCCGAUGCAGGUGUAGCGACUAGACGGCACCCACCUAAGGCCAACGAUAUGGUGAAGGCAUAGUCUAGGGAGGGGCGAAAGUCACACAAACCGG [A111C A120C A145C C150A C169U U176G], with 0.00564.

Consider GUGCCUUGCGCCGGGAAACCACGCAAGGGAUGGUGUCAAAUUCGGCGAAACCUAAGCGCCCGCCCGGGCGUAUGGCAACGCCGAGCCAAGCUUCGGCGCCUGCGCCGAUGCAGGUGUAGCGACUAGACGGCACCCACCUAAGGCCAACGAUAUGGUGAAGGCAUAGUCUAGGGAGUGGCGAAAGUCACACAAACCGG [A111C A120C A145C C150A C169U], for which the reverse-splicing fitness came to 0.0161. Under GUGCCUUGCGCCGGGAAACCACGCAAGGGAUGGUGUCAAAUUCGGCGAAACCUAAGCGCCCGCCCGGGCGUAUGGCAACGCCGAGCCAAGCUUCGGCGCCUGCGCCGAUGCAGGUGUAGCGACUAGACGGCACCCACCUAAGGCCAACGAUAUGGUGAAGGCAUAGUCGAGGGAGUGGCGAAAGUCACACAAACCGG [A111C A120C A145C C150A C169G] stands 0.0073; under GUGCCUUGCGCCGGGAAACCACGCAAGGGAUGGUGUCAAAUUCGGCGAAACCUAAGCGCCCGCCCGGGCGUAUGGCAACGCCGAGCCAAGCUUCGGCGCCUGCGCCGAUGCAGGUGUAGCGACUAGACGGCACCCACCUAAGGCCAACGAUAUGGUGAAGGCAUAGUCAAGGGAGUGGCGAAAGUCACACAAACCGG [A111C A120C A145C C150A C169A], 0.00839. Under GUGCCUUGCGCCGGGAAACCACGCAAGGGAUGGUGUCAAAUUCGGCGAAACCUAAGCGCCCGCCCGGGCGUAUGGCAACGCCGAGCCAAGCUUCGGCGCCUGCGCCGAUGCAGGUGUAGCGACUAGACGGCACCCACCUAAGGCCAACGAUAUGGUGAAGGCAUAGUCCAGGGAGCGGCGAAAGUCACACAAACCGG [A111C A120C A145C C150A U176C] stands 0.0293.

On to GUGCCUUGCGCCGGGAAACCACGCAAGGGAUGGUGUCAAAUUCGGCGAAACCUAAGCGCCCGCCCGGGCGUAUGGCAACGCCGAGCCAAGCUUCGGCGCCUGCGCCGAUGCAGGUGUAGCGACUAGACGGCACCCACCUAAGGCCAACGAUAUGGUGAAGGCAUAGUCCAGGGAGAGGCGAAAGUCACACAAACCGG [A111C A120C A145C C150A U176A], for which the reverse-splicing fitness is 0.0203. Then GUGCCUUGCGCCGGGAAACCACGCAAGGGAUGGUGUCAAAUUCGGCGAAACCUAAGCGCCCGCCCGGGCGUAUGGCAACGCCGAGCCAAGCUUCGGCGCCUGCGCCGAUGCAGGUGUAGCGACUAGACGGCACCCACCUAAGGCCAACGAUAUGGUGAAGGCAUAGUCCAGGGAGGGGCGAAAGUCACACAAACCGG [A111C A120C A145C C150A U176G], with 0.0084; and GUGCCUUGCGCCGGGAAACCACGCAAGGGAUGGUGUCAAAUUCGGCGAAACCUAAGCGCCCGCCCGGGCGUAUGGCAACGCCGAGCCAAGCUUCGGCGCCUGCGCCGAUGCAGGUGUAGCGACUAGACGGCACCCACCUAAGGCCAACGAUAUGGUGAAGGCAUAGUCAAGGGAGAGGCGAAAGUCACACAAACCGG [A111C A120C A145C C150A C169A U176A], with 0.0152; and GUGCCUUGCGCCGGGAAACCACGCAAGGGAUGGUGUCAAAUUCGGCGAAACCUAAGCGCCCGCCCGGGCGUAUGGCAACGCCGAGCCAAGCUUCGGCGCCUGCGCCGAUGCAGGUGUAGCGACUAGACGGCACCCACCUAAGGCCAACGAUAUGGUGAAGGCAUAGUCAAGGGAGGGGCGAAAGUCACACAAACCGG [A111C A120C A145C C150A C169A U176G], with 0.00655. Then GUGCCUUGCGCCGGGAAACCACGCAAGGGAUGGUGUCAAAUUCGGCGAAACCUAAGCGCCCGCCCGGGCGUAUGGCAACGCCGAGCCAAGCUUCGGCGCCUGCGCCGAUGCAGGUGUAGCGACUAGACGGCACCCACCUAAGGCCAACGAUAUGGUGAAGGCAUAGUCAAGGGAGCGGCGAAAGUCACACAAACCGG [A111C A120C A145C C150A C169A U176C], with 0.00638; and GUGCCUUGCGCCGGGAAACCACGCAAGGGAUGGUGUCAAAUUCGGCGAAACCUAAGCGCCCGCCCGGGCGUAUGGCAACGCCGAGCCAAGCUUCGGCGCCUGCGCCGAUGCAGGUGUAGCGACUAGACGGCACCCACCUAAGGCCAACGCUAUGGUGAAGGCAUAGUCCAGGGAGUGGCGAAAGUCACACAAACCGG [A111C A120C A145C], with 0.556.
